The assay addresses CD19 expressed on the surface of KILR Raji cells (UniProt P15391). In words: cell-based or functional assay.

Chain of CD19 expressed on the surface of KILR Raji cells (P15391 20-556 limits assumed): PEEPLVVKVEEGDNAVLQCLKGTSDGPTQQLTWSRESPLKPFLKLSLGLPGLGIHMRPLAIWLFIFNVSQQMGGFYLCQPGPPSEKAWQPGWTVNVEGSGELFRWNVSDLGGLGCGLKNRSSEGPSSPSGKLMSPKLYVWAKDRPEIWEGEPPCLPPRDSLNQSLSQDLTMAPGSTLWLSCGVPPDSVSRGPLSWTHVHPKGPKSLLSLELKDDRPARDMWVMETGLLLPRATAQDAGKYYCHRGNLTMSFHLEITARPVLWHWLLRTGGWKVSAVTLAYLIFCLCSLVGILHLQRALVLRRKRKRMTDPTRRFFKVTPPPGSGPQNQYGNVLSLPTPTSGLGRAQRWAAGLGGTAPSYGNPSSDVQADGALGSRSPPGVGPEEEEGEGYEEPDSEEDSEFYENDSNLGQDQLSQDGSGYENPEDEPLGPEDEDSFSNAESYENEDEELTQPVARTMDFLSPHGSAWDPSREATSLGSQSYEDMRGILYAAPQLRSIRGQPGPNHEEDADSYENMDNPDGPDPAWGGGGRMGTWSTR

In turn, blinatumomab (bispecific antibody) had an EC50 of T cell-redirected killing of KILR Raji cells, +HSA (15 mg/mL) of 10.8 ng/mL; an EC50 of T cell-redirected killing of KILR Raji cells, -HSA of 2.85 ng/mL; a Fold change (EC50 +HSA / EC50 -HSA) of killing of KILR Raji cells of 3.8 fold.

The record behind these values is patent publication US12404328.
